In patent publication US20260176306A1:

Assays:
[1] = biological target: H7 hemagglutinin of A/Hong Kong/125/2017 H7N9 on pseudo virus (Influenza A virus A/Hong Kong/125/2017 H7N9); assay: cell-based or functional assay
[2] = biological target: H7 hemagglutinin of A/Shanghai/4664T/2013 H7N9 on pseudo virus (Influenza A virus A/Shanghai/4664T/2013 H7N9); assay: cell-based or functional assay

B1: H7.HK1 (antibody, V domains shown)
VH: QVQLQESGPGLVKPSETLSLTCSVSGGSINSYYWTWIRQPPGKGLEWVGYIYHSGSTSYNPSLKSRITISVAPSKNHFSLELTSMTAADTAVYYCARLGGHGDYGSDYWGQGTLVTVSS
VL: DIVMTQSPVSLPVTPGEPASISCNSSQSLLHSNGYAHLDWYLQKPGQSPKLMIYLGLNRAFGVPDRFSGSGSGTDFTLKISRVEAEDVGVYYCMQALQTPFTFGPGTRVDIK
neutralization IC50, H7N9 2017 pseudo virus, MDCK cells, luciferase [1]: 0.03 µg/mL

B2: H7.HK4 (antibody, V domains shown)
VH: QVQLQESGPGLVKPSETLSLTCTVSGGSVRSASYAWSWIRQPPGKGLEWIGDIYYSGTTNYNPSLKSRVTLSVDTAKNRFSLRLRSVTAADTAVYHCARERYYYGSSGDFDYWGQGTLVTVSS
VL: DIQMTQSPSSLSASVGDRVTITCRASQGIRNYLAWFQQKPGQAPKSLIFAASSLHTGVPSRFSGSGSGTDFTLTISSLQPEDFATYYCQHYNSYPPTFGQGTKLEIK
neutralization, H7N9 2013 pseudo virus, MDCK cells, luciferase [2]: > 10 µg/mL

B3: H7.HK2 (antibody, V domains shown)
VH: QVQLQGSGPGLLRPSETLSLTCSVSGVSINSYYWSWVRQPPGKALEWIGYIYYSGNTNYNPSLESRVTISVDRSKNQFSLKMTSVTAADTARYFCARQGIFGDYGSDYWGPGTLVTVSS
VL: DIVMTQSPLSLPVTPGEPASISCRSNQSLQHSNGYVHLDWYRQKPGQSPHLLIYLGFNRASGVPDRFSGGGSGTDFTLKISRVEAEDVGVYYCMQGLQTPFTFGPGTTVDLK
neutralization IC50, H7N9 2017 pseudo virus, MDCK cells, luciferase [1]: 0.03 µg/mL
